# In the supplement of paper PMC9112550, “Optimization of the antimicrobial peptide Bac7 by deep mutational scanning” (BMC Biology, 2022):
# Tested on: Escherichia coli TOP10
# Assay: shrunken log2 fold change of peptide-encoding DNA abundance (4.5 h post-induction vs induction); higher = less antimicrobial activity (less host growth inhibition)
# Settings: time post-induction: 4.5 h; library: site-saturation at positions 5, 18, 19, 20
# 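Further: peptides expressed intracellularly from a pBAD plasmid library in pooled LB shake-flask culture, induced with 0.3% L-arabinose, DNA abundance read by NGS, three biological replicates, DESeq2 with apeglm shrinkage.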
row,Sequence,shrunken log2 fold change
1,RRIRWRPPRLPRPRPRPMLSPRP,-0.0162
2,RRIRERPPRLPRPRPRPVSNPRP,-1.12
3,RRIRNRPPRLPRPRPRPLVSPRP,-0.185
4,RRIRNRPPRLPRPRPRPVAEPRP,0.363
5,RRIRIRPPRLPRPRPRPGLIPRP,-0.627
6,RRIRRRPPRLPRPRPRPMQCPRP,0.00703
7,RRIRKRPPRLPRPRPRPPSYPRP,0.667
8,RRIRPRPPRLPRPRPRPFEWPRP,-0.124
9,RRIRLRPPRLPRPRPRPRRKPRP,-0.00224
10,RRIRQRPPRLPRPRPRPHYWPRP,0.0403
11,RRIRVRPPRLPRPRPRPINPPRP,-0.327
12,RRIRARPPRLPRPRPRPFYFPRP,0.00316
13,RRIRERPPRLPRPRPRPIAWPRP,-0.199
14,RRIRMRPPRLPRPRPRPWSFPRP,-0.33
15,RRIRHRPPRLPRPRPRPMIPPRP,0.132
16,RRIRHRPPRLPRPRPRPLNRPRP,0.0215
17,RRIRCRPPRLPRPRPRPHHCPRP,0.00372
18,RRIRFRPPRLPRPRPRPEYWPRP,-0.245
19,RRIRERPPRLPRPRPRPKTVPRP,-0.0153
20,RRIRGRPPRLPRPRPRPIPIPRP,0.0541
21,RRIRYRPPRLPRPRPRPHHSPRP,-1.27
22,RRIRCRPPRLPRPRPRPASGPRP,0.148
23,RRIRDRPPRLPRPRPRPWMTPRP,-0.29
24,RRIRLRPPRLPRPRPRPFYDPRP,0.00534
25,RRIRIRPPRLPRPRPRPINNPRP,-0.751

row,Sequence,shrunken log2 fold change
1,RRIRERPPRLPRPRPRPLGIPRP,-0.0554
2,RRIRGRPPRLPRPRPRPYDIPRP,-0.068
3,RRIRCRPPRLPRPRPRPQYLPRP,-0.964
4,RRIRCRPPRLPRPRPRPKKYPRP,-0.485
5,RRIRGRPPRLPRPRPRPTVFPRP,0.993
6,RRIRWRPPRLPRPRPRPALLPRP,0.584
7,RRIRRRPPRLPRPRPRPYNFPRP,-0.642
8,RRIRNRPPRLPRPRPRPQHHPRP,-0.432
9,RRIRCRPPRLPRPRPRPNAMPRP,0.0678
10,RRIRKRPPRLPRPRPRPVNGPRP,0.0996
11,RRIRLRPPRLPRPRPRPKRWPRP,0.356
12,RRIRERPPRLPRPRPRPYAAPRP,-0.368
13,RRIRPRPPRLPRPRPRPHFLPRP,-0.168
14,RRIRKRPPRLPRPRPRPSKVPRP,-0.131
15,RRIRSRPPRLPRPRPRPAQAPRP,0.15
16,RRIRLRPPRLPRPRPRPNWFPRP,-0.00982
17,RRIRKRPPRLPRPRPRPGHGPRP,0.16
18,RRIRQRPPRLPRPRPRPRCCPRP,0.061
19,RRIRGRPPRLPRPRPRPFGYPRP,-0.0838
20,RRIRHRPPRLPRPRPRPHGNPRP,-1.11
21,RRIRFRPPRLPRPRPRPCTDPRP,-0.183
22,RRIRHRPPRLPRPRPRPMPMPRP,0.0326
23,RRIRKRPPRLPRPRPRPTDPPRP,0.0238
24,RRIRGRPPRLPRPRPRPANYPRP,0.0041
25,RRIRSRPPRLPRPRPRPSSSPRP,-0.353

row,Sequence,shrunken log2 fold change
1,RRIRARPPRLPRPRPRPPESPRP,1.02
2,RRIRLRPPRLPRPRPRPYWDPRP,-0.195
3,RRIRMRPPRLPRPRPRPLTFPRP,-0.291
4,RRIRFRPPRLPRPRPRPHVEPRP,-0.00526
5,RRIRRRPPRLPRPRPRPSRPPRP,0.464
6,RRIRPRPPRLPRPRPRPVRDPRP,0.146
7,RRIRWRPPRLPRPRPRPHGIPRP,0.00741
8,RRIRDRPPRLPRPRPRPSKDPRP,-0.242
9,RRIRPRPPRLPRPRPRPQCCPRP,0.0723
10,RRIRSRPPRLPRPRPRPCVSPRP,-0.391
11,RRIRRRPPRLPRPRPRPNVTPRP,0.0871
12,RRIRVRPPRLPRPRPRPTCRPRP,0.147
13,RRIRDRPPRLPRPRPRPRVVPRP,0.11
14,RRIRARPPRLPRPRPRPILWPRP,0.254
15,RRIRIRPPRLPRPRPRPQQDPRP,-0.442
16,RRIRARPPRLPRPRPRPLSGPRP,0.334
17,RRIRCRPPRLPRPRPRPAGDPRP,0.176
18,RRIRSRPPRLPRPRPRPKGDPRP,-0.011
19,RRIRKRPPRLPRPRPRPSQTPRP,0.026
20,RRIRVRPPRLPRPRPRPYDHPRP,-0.347
21,RRIRPRPPRLPRPRPRPCQDPRP,-0.006
22,RRIRYRPPRLPRPRPRPDSIPRP,-0.0267
23,RRIRRRPPRLPRPRPRPMDKPRP,-0.283
24,RRIRSRPPRLPRPRPRPLCCPRP,0.473
25,RRIRHRPPRLPRPRPRPICVPRP,0.0683

row,Sequence,shrunken log2 fold change
1,RRIRFRPPRLPRPRPRPMTFPRP,-0.0585
2,RRIRMRPPRLPRPRPRPKNSPRP,0.132
3,RRIRARPPRLPRPRPRPKTKPRP,0.0731
4,RRIRNRPPRLPRPRPRPHFVPRP,-0.0954
5,RRIRQRPPRLPRPRPRPMQMPRP,0.0303
6,RRIRNRPPRLPRPRPRPFQCPRP,-0.0493
7,RRIRERPPRLPRPRPRPWRCPRP,-0.0332
8,RRIRPRPPRLPRPRPRPWCKPRP,-0.162
9,RRIRPRPPRLPRPRPRPTVTPRP,-0.0401
10,RRIRKRPPRLPRPRPRPLWEPRP,0.163
11,RRIRDRPPRLPRPRPRPFVAPRP,0.0541
12,RRIRTRPPRLPRPRPRPWVSPRP,0.137
13,RRIRCRPPRLPRPRPRPWCNPRP,-0.412
14,RRIRARPPRLPRPRPRPDRHPRP,0.0379
15,RRIRYRPPRLPRPRPRPTGRPRP,0.0692
16,RRIRLRPPRLPRPRPRPMHRPRP,-0.274
17,RRIRIRPPRLPRPRPRPMIRPRP,-0.511
18,RRIRMRPPRLPRPRPRPLNCPRP,-0.158
19,RRIRLRPPRLPRPRPRPTKNPRP,0.00698
20,RRIRSRPPRLPRPRPRPAFEPRP,0.0595
21,RRIRKRPPRLPRPRPRPLRGPRP,0.873
22,RRIRMRPPRLPRPRPRPWCFPRP,-0.144
23,RRIRWRPPRLPRPRPRPDNFPRP,-0.0334
24,RRIRMRPPRLPRPRPRPHHRPRP,-0.0556
25,RRIRERPPRLPRPRPRPFNSPRP,-0.225

row,Sequence,shrunken log2 fold change
1,RRIRKRPPRLPRPRPRPLFGPRP,0.439
2,RRIRQRPPRLPRPRPRPIVEPRP,0.0141
3,RRIRDRPPRLPRPRPRPNNTPRP,-0.747
4,RRIRARPPRLPRPRPRPEAWPRP,-0.00193
5,RRIRMRPPRLPRPRPRPLVFPRP,0.102
6,RRIRSRPPRLPRPRPRPERTPRP,0.0493
7,RRIRGRPPRLPRPRPRPMLSPRP,0.393
8,RRIRCRPPRLPRPRPRPLHSPRP,-0.383
9,RRIRFRPPRLPRPRPRPFWRPRP,0.366
10,RRIRHRPPRLPRPRPRPEGYPRP,-0.124
11,RRIRPRPPRLPRPRPRPAYKPRP,-0.302
12,RRIRIRPPRLPRPRPRPIWHPRP,-0.455
13,RRIRGRPPRLPRPRPRPSTNPRP,0.271
14,RRIRYRPPRLPRPRPRPVCIPRP,-1.24
15,RRIRKRPPRLPRPRPRPPSTPRP,0.661
16,RRIRKRPPRLPRPRPRPLRLPRP,1.16
17,RRIRWRPPRLPRPRPRPSRQPRP,0.399
18,RRIRWRPPRLPRPRPRPGESPRP,0.159
19,RRIRDRPPRLPRPRPRPVANPRP,-0.0229
20,RRIRFRPPRLPRPRPRPRWIPRP,0.0967
21,RRIRDRPPRLPRPRPRPETNPRP,0.443
22,RRIRARPPRLPRPRPRPHGIPRP,0.0225
23,RRIRMRPPRLPRPRPRPTDLPRP,0.225
24,RRIRTRPPRLPRPRPRPPLDPRP,0.148
25,RRIRFRPPRLPRPRPRPNTNPRP,-0.622
